We go through one molecule from patent US12233135B2, “Therapeutic constructs for treating cancer” (PRECISION MOLECULAR INC., priority 2018, dated 2025).

The experiment deals with B16F10-Red-FLuc mouse melanoma cells. Description: Syngeneic model of experimental metastasis to the lung using B16F10-Red-FLuc cells. Format: in vivo. As to conditions: Example 9. The protocol:
B16F10-Red-FLuc mouse melanoma cells (Perkin Elmer, Waltham, MA, USA) were cultured in RPMI 1640 cell culture medium supplemented with 10% FBS, 1% GlutaMAX™, and 1% penicillin-streptomycin, and grown at 37° C. in a humidified cell culture incubator supplied with 5% CO2. The cells were harvested by trypsinization, washed twice in HBSS and counted (using trypan blue exclusion). The final cell density was adjusted with HBSS to 3.5×10e6 cells/mL. 100 μL of cell suspension, consisting of 3.5×10e5 cells, was discharged into the tail vein of mice at the start of the study (Day 0). Imaging was performed on study Day 5, when the presence of lung tumors was confirmed in sufficient animals to commence the study. Imaging was performed as described in Example 6.
9.5% Trehalose buffer and nanoparticles containing PEG-lucia, PEG-mIL12, PEG-TK-mIL12, PEG-mIL2-mIL12 and PEG-TK-mIL2-mIL12 (each 60 μg/vial) were reconstituted in 300 μL of nuclease-free water per vial on the day of dosing to give dosing solutions of 200 μg/mL. Formulated test articles were stored at 4° C. and used on day of reconstitution.
9.5% Trehalose buffer and nanoparticles containing PEG-lucia, PEG-mIL12, PEG-TK-mIL12, PEG-mIL2-mIL12 and PEG-TK-mIL2-mIL12 were administered via intravenous injection (i.v.) on Study Days 5, 8, 11, 14 and 17. Treatments were administered at a dose of 2 mg/kg in a dosing volume of 10 mL/kg on Study Days 5, 11, 14 and 17. Due to declining body weight in all groups apart from the vehicle control at Day 6, the dose was reduced to 1 mg/kg in 5 mL/kg for the dose administered on Study Day 8. Dosing then resumed at 2 mg/kg in 10 mL/kg on Study Day 11 as per protocol.
The anti-tumor effect of nanoparticles containing PEG-mIL12 and expressing mIL-12 was compared to recombinant mIL-12 protein administered subcutaneously. The experimental design was as Example 8 but nanoparticles were prepared at N/P=4 and N/P=6 ratios. Nanoparticles were dosed as before for N/P=6, however, for the N/P=4 formulation the dose was maintained at 2 mg/kg in 10 mL/kg at day 8. […]

B1: recombinant mIL-12: recombinant mIL-12 protein (PeproTech) administered subcutaneously (protein, UniProt P43431 23-215; P43432 23-335, looked up)
Interleukin-12 subunit alpha: RVIPVSGPARCLSQSRNLLKTTDDMVKTAREKLKHYSCTAEDIDHEDITRDQTSTLKTCLPLELHKNESCLATRETSSTTRGSCLPPQKTSLMMTLCLGSIYEDLKMYQTEFQAINAALQNHNHQQIILDKGMLVAIDELMQSLNHNGETLRQKPPVGEADPYRVKMKLCILLHAFSTRVVTINRVMGYLSSA
Interleukin-12 subunit beta: MWELEKDVYVVEVDWTPDAPGETVNLTCDTPEEDDITWTSDQRHGVIGSGKTLTITVKEFLDAGQYTCHKGGETLSHSHLLLHKKENGIWSTEILKNFKNKTFLKCEAPNYSGRFTCSWLVQRNMDLKFNIKSSSSSPDSRAVTCGMASLSAEKVTLDQRDYEKYSVSCQEDVTCPTAEETLPIELALEARQQNKYENYSTSFFIRDIIKPDPPKNLQMKPLKNSQVEVSWEYPDSWSTPHSYFSLKFFVRIQRKKEKMKETEEGCNQKGAFLVEKTSTEVQCKGGNVCVQAQDRYYNSSCSKWACVPCRVRS
For B1, the “Median survival compared with Trehalose control” value (Log-rank test, p≤0.01 for PEG-mIL12 formulations, p≤0.05 for recombinant mIL-12) was “significantly longer”. In addition, the “tumor growth by luminescence compared with 9.5% Trehalose control” value (Study Day 19) is “significant (p≤0.05) inhibition of tumor growth”. For the same molecule, the Median survival time (nanoparticles 2 mg/kg i.v., recombinant mIL-12 s.c. 4 μg/kg then 12 μg/kg, Trehalose control 22.0 days) is 25.0 days.
